Data published in paper PMC2859858.

Biological target: ProLabel-LEDGF fusion protein (UniProt O75475)
Test: chemiluminescent co-IP assay
Conditions: 293T cells, 48 h after transfection; parent: est. 4700; read off a plot

UniProt O75475, sequence (O75475 whole entry, the tested form may be a part): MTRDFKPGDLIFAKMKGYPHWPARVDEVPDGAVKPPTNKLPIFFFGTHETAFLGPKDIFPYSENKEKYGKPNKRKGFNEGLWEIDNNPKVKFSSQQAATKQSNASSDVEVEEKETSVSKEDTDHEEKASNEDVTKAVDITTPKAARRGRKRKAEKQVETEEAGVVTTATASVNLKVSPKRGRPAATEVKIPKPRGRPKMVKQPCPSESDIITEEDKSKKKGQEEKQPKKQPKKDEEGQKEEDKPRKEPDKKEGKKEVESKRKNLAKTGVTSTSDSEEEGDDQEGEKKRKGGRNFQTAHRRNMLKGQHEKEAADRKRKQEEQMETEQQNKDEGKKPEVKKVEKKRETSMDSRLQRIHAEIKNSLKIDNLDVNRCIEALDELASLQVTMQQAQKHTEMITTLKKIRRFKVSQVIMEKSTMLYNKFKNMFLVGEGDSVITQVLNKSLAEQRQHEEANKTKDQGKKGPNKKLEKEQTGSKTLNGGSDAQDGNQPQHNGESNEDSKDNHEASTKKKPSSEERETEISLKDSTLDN

Substance | response [RLU]
AcGFP1-IN wild type E170A; H171A | 50
AcGFP1-IN wild type E170A; K173A | 1300
AcGFP1-IN wild type H171A; K173A | 250
AcGFP1-IN wild type H171A; L172A | 130
